Consider two molecules from patent US20260070940A1 (Hoffmann-La Roche, published 2026).

The target in assay [1] is T1, soluble human Lag3-IgG1-Fc with biotinylated C-terminal Avi-tag (human, biotin on the Avi-tag).
T1 construct: Lag3 ECD, IEGRMD linker, IgG1 Fc, Avi-tag; also called LAG3-Fc-avi; biotinylated LAG3-Fc
Description: A375 MHCII competition ELISA, 3 ug/ml.

For assay [2], the target named is T2, recombinant human LAG3 Fc Chimera Protein (R&D Systems, 2319-L3) (human, UniProt P18627 23-450).
T2 construct: Bought
T2 sequence (looked up): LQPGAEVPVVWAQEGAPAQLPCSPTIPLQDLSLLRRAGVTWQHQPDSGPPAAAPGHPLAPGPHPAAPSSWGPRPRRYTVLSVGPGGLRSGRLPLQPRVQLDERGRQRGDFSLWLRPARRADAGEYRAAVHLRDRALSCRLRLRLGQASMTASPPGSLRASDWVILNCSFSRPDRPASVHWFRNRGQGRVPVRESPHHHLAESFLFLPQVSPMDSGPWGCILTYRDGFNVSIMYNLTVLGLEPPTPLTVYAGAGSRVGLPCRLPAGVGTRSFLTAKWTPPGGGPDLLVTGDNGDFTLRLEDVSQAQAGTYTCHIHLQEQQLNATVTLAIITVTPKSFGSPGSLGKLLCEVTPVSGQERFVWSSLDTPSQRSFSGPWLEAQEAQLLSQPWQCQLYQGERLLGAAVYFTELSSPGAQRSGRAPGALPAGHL
Description: SPR, captured aVH-Fc, LAG3 Fc analyte. On the technique in general: In SPR one partner is held on a chip, and binding of the other changes the refractive index at the surface.

Assay [3] concerns the target T2, recombinant human LAG3 Fc Chimera …. Put plainly: SPR, captured aVH-Fc, LAG3 Fc analyte; poor fit.
Assay [4] addresses T1, soluble human Lag3-IgG1-Fc with …. Put plainly: A375 MHCII competition ELISA. (In general: An ELISA detects its analyte on a solid surface through an enzyme-linked reagent.)
The target in assay [5] is T3, human LAG3 on recombinant CHO cells (human, UniProt P18627 23-525).
T3 construct: whole, on cells; also called Lag3 cells
T3 sequence (looked up): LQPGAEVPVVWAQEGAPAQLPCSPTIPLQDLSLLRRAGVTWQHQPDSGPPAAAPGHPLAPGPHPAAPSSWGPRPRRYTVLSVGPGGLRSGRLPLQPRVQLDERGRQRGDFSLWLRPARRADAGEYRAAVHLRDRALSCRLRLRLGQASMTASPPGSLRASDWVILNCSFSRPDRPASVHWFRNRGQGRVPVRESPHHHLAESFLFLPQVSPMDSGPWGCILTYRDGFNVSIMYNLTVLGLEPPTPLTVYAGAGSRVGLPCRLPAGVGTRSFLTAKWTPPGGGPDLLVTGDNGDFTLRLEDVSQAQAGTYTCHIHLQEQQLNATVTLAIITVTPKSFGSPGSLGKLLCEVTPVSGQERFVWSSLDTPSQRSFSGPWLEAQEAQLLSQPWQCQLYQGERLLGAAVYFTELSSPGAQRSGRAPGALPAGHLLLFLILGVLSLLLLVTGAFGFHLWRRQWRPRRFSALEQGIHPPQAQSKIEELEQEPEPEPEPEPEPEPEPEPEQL
Put plainly: cell ELISA, CHO-LAG3.

Assay [6] addresses T2, recombinant human LAG3 Fc Chimera …. Description: ELISA, coated LAG3 Fc.
Assay [7] addresses T4, murine LAG3-Fc antigen (R&D Systems, 3328-L3-050) (murine, UniProt Q61790 24-442).
T4 construct: Bought
T4 sequence (looked up): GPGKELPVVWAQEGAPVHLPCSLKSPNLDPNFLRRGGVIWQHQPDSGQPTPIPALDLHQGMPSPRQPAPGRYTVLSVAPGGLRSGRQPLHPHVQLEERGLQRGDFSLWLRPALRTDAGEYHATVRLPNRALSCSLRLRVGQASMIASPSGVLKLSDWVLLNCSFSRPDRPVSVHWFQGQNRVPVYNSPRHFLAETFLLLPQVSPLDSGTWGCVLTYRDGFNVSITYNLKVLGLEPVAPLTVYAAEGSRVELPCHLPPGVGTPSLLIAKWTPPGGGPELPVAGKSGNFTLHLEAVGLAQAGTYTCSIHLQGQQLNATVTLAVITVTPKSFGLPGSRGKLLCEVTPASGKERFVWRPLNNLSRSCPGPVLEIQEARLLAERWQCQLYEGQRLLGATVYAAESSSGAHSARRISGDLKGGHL
Description: ELISA, murine LAG3-Fc.

Assay [8] deals with T5, full-length human CD28 with N-terminal SNAP tag on transfected Hek293 cells (human, UniProt P10747 19-220, SNAP tag labelled with terbium).
T5 construct: whole, on cells; also called hu CD28-SNAP
Put plainly: FRET competition, unlabelled against d2-TGN1412 on CD28-SNAP cells; 95% CI in brackets.

Assay [9] has as its target T5, full-length human CD28 with N-terminal …. Description: FRET competition on cells with terbium-labelled hu CD28-SNAP; competitor d2-labelled TGN1412 (0.15 nM), unlabelled TGN1412 IgG titrated.

The % Inhibition is the relative decrease from the control value, in per cent. High values mean a strong effect, low ones a weak effect. Usually t½ stands for the time needed for the level to fall by half in the phase considered. By koff is commonly meant the first-order rate constant of dissociation. As a reminder, the IC50 is the concentration needed to halve the response being measured. Usually EC50 stands for the concentration that produces a half-maximal response. A word on the Ki: it is the equilibrium dissociation constant of an inhibitor or competing ligand from its target. A lower Ki goes with higher affinity.

Where “and” joins values, the source holds several entries; their conditions need not be identical. Equal values may be shown once.

B1: P11A2 aVH-Fc, bivalent (PG-LALA) (Fc fusion)
heavy: EVQLVESGGGLVQPGGSLRLSCAASSFNIKDTYIGWVRRAPGKGTELVAEIACHEGTTRYADSVKGRFTISCDTSKNTAYLQMNSLRAEDTAVYYCANTEYDDIFDYWGQGTTVTVSSGGGGSGGGGSDKTHTCPPCPAPEAAGGPSVFLFPPKPKDTLMISRTPEVTCVVVDVSHEDPEVKFNWYVDGVEVHNAKTKPREEQYNSTYRVVSVLTVLHQDWLNGKEYKCKVSNKALGAPIEKTISKAKGQPREPQVYTLPPSRDELTKNQVSLTCLVKGFYPSDIAVEWESNGQPENNYKTTPPVLDSDGSFFLYSKLTVDKSRWQQGNVFSCSVMHEALHNHYTQKSLSLSPGK
For B1, in [1], the “% Inhibition” value stood at 92.4%. Moreover, the t½ in [2] amounted to 2.4 min. Besides, the koff in [3] is 0.0048 s⁻¹. Besides, the IC50 in assay [4] is 0.0903 µg/mL and 1.2 nM. In addition, the EC50 in [5] is 0.0169 µg/mL and 0.2 nM. For the same molecule, the OD max in assay [5] was found to be 1.2; in [6], 1.3. For the same molecule, the binding result in assay [7] is “no binding”.

B2: TGN1412 IgG (antibody, V domains shown)
VH: QVQLVQSGAEVKKPGASVKVSCKASGYTFTSYYIHWVRQAPGQGLEWIGCIYPGNVNTNYNEKFKDRATLTVDTSISTAYMELSRLRSDDTAVYFCTRSHYGLDWNFDVWGQGTTVTVSS
VL: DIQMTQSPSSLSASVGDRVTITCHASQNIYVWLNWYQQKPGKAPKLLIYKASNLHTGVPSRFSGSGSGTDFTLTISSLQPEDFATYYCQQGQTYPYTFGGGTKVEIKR
For B2, affinity in assay [8] was put at a Ki of 280 pM. Also, the “IC50 (read off the curve)” value in [9] was about 600 pM.
